Measured values reported in patent publication US11427805B2, “Methods of producing human foregut endoderm cells expressing PDX1 from human definitive endoderm” (ViaCyte, Inc., priority 2005, dated 2022).

Columns and labels:
Type in all cases: cell-based, human
[1] = test system: hESCs; assay: CXCR4+ cell number by flow cytometry; conditions: 0, 10, or 100 ng/ml, 7 days (FIGS. 30A-C)
Procedure: hESCs were differentiated in RPMI media supplemented with 0.5%-2% FBS (increased from 0.5% to 1.0% to 2.0% over the first 3 days of differentiation) and either 0, 10, or 100 ng/ml of activin A. After 7 days of differentiation the cells were dissociated in PBS without Ca^2+/Mg^2+ containing 2% FBS and 2 mM (EDTA) for 5 minutes at room temperature. The cells were filtered through 35 μm nylon filters, counted and pelleted. Pellets were resuspended in a small volume of 50% human serum/50% normal donkey serum and incubated for 2 minutes on ice to block non-specific antibody binding sites. To this, 1 μl of mouse anti-CXCR4 antibody (Abcam, cat # ab10403-100) was added per 50 μl (containing approximately 10^5 cells) and labeling proceeded for 45 minutes on ice. Cells were washed by adding 5 ml of PBS containing 2% human serum (buffer) and pelleted. A second wash with 5 ml of buffer was completed then cells were resuspended in 50 μl buffer per 10^5 cells. […] Cells were resuspended at 5×10^6 cells/ml in buffer and analyzed and sorted using a FACS Vantage (Beckton Dickenson) by the staff at the flow cytometry core facility (The Scripps Research Institute). Cells were collected directly into RLT lysis buffer (Qiagen) for subsequent isolation of total RNA for gene expression analysis by real-time quantitative PCR.

[2] = test system: hESCs; assay: Q-PCR of germ layer marker genes (MIXL1, GATA4, HNF3b, SOX7, SPARC, ZIC1, Brachyury) in differentiating hESCs
Text: We routinely used Q-PCR to measure the gene expression of multiple markers of target and non-target cell types in order to provide a broad profile description of gene expression in cell samples. The markers relevant for the early phases of hESC differentiation (specifically ectoderm, mesoderm, definitive endoderm and extra-embryonic endoderm) and for which validated primer sets are available are provided below in Table 1. […] This is an important fact since the hESCs were often grown on mouse feeder layers. Most typically, triplicate samples were taken for each condition and independently analyzed in duplicate to assess the biological variability associated with each quantitative determination.
(§1) To generate PCR template, total RNA was isolated using RNeasy (Qiagen) and quantitated using RiboGreen (Molecular Probes). Reverse transcription from 350-500 ng of total RNA was carried out using the iScript reverse transcriptase kit (BioRad), which contains a mix of oligo-dT and random primers. Each 20 μL reaction was subsequently diluted up to 100 μL total volume and 3 μL was used in each 10 μL Q-PCR reaction containing 400 nM forward and reverse primers and 5 μL 2×SYBR Green master mix (Qiagen). Two step cycling parameters were used employing a 5 second denature at 85-94° C. (specifically selected according to the melting temp of the amplicon for each primer set) followed by a 45 second anneal/extend at 60° C. Fluorescence data was collected during the last 15 seconds of each extension phase. A three point, 10-fold dilution series was used to generate the standard curve for each run and cycle thresholds (Ct's) were converted to quantitative values based on this standard curve. The quantitated values for each sample were normalized to housekeeping gene performance and then average and standard deviations were calculated for triplicate samples. At the conclusion of PCR cycling, a melt curve analysis was performed to ascertain the specificity of the reaction. A single specific product was indicated by a single peak at the Tm appropriate for that PCR amplicon.
Definitive endoderm cells were predicted to express high levels of SOX17 mRNA and low levels of AFP and SOX7 (visceral endoderm), SPARC (parietal endoderm) and Brachyury (mesoderm). In addition, ZIC1 was used here to further rule out induction of early ectoderm. Finally, GATA4 and HNF3b were expressed in both definitive and extra-embryonic endoderm, and thus, correlate with SOX17 expression in definitive endoderm (Table 1).

[3] = test system: SOX17 gene expression; assay: Q-PCR of SOX17 gene expression in differentiating hESCs
Procedure: In the following experiments, real-time quantitative RT-PCR (Q-PCR) was the primary assay used for screening the effects of various treatments on hESC differentiation. In particular, real-time measurements of gene expression were analyzed for multiple marker genes at multiple time points by Q-PCR. Marker genes characteristic of the desired as well as undesired cell types were evaluated to gain a better understanding of the overall dynamics of the cellular populations. The strength of Q-PCR analysis includes its extreme sensitivity and relative ease of developing the necessary markers, as the genome sequence is readily available. Furthermore, the extremely high sensitivity of Q-PCR permits detection of gene expression from a relatively small number of cells within a much larger population. In addition, the ability to detect very low levels of gene expression provides indications for “differentiation bias” within the population. The bias towards a particular differentiation pathway, prior to the overt differentiation of those cellular phenotypes, is unrecognizable using immunocytochemical techniques. […] Additionally, Q-PCR provides a mechanism by which to evaluate the success of a differentiation protocol in a quantitative format at semi-high throughput scales of analysis.
The approach taken here was to perform relative quantitation using SYBR Green chemistry on a Rotor Gene 3000 instrument (Corbett Research) and a two-step RT-PCR format. Such an approach allowed for the banking of cDNA samples for analysis of additional marker genes in the future, thus avoiding variability in the reverse transcription efficiency between samples.
as §1
A first step in establishing the Q-PCR methodology was validation of appropriate housekeeping genes (HGs) in the experimental system. […] We measured the expression levels of Cyclophilin G, hypoxanthine phosphoribosyltransferase 1 (HPRT), beta-2-microglobulin, hydroxymethylbiane synthase (HMBS), TATA-binding protein (TBP), and glucoronidase beta (GUS) in differentiating hESCs. […] We routinely used both Cyclophilin G and GUS to calculate a normalization factor for all samples. The use of multiple HGs simultaneously reduces the variability inherent to the normalization process and increases the reliability of the relative gene expression values.
We were the first to analyze and describe the effect of TGFβ family growth factors, such as Nodal/activin/BMP, for use in creating definitive endoderm cells from embryonic stem cells in in vitro cell cultures. […]

B1: activin A (protein, UniProt P08476 311-426, looked up)
Inhibin beta A chain: GLECDGKVNICCKKQFFVSFKDIGWNDWIIAPSGYHANYCEGECPSHIAGTSGSSLSFHSTVINHYRMRGHSPFANLKSCCVPTKLRPMSMLYYDDGQNIIKKDIQNMIVEECGCS
modifications: Inhibin beta A chain
[1]
  number of CXCR4+ cells as determined by flow cytometry: increase dramatically
[2]; 100 ng/ml (FIG. 14B)
  mesoderm differentiation (brachyury expression): notable suppression
[2]; activin A dose series (FIG. 14A)
  effect on neural differentiation (ZIC1 expression): not a dose-dependent effect
[2]; activin A dose series (FIGS. 12A-C)
  expression of definitive endoderm markers MIXL1, GATA4 and HNF3b: dose-dependent increases
[2]; activin A dose series (FIGS. 13B-C)
  expression of primitive endoderm (SOX7) and parietal endoderm (SPARC) markers: remain either unchanged or exhibit suppression at some time points
[3]; 0, 10, 30 or 100 ng/ml (FIG. 11)
  dose dependence of SOX17 gene expression: dose-dependently increases SOX17 gene expression
[3]; 4-day time point
  SOX17 induction compared to no factor medium controls: 5 fold
[3]; FIG. 7A
  SOX17 gene expression relative to the undifferentiated control media (SR20): increases SOX17 gene expression
[3]; day 4 of differentiation / four days of exposure, activin A at 100 ng/ml, 10% serum medium (FIGS. 19, 21)
  induction of SOX17 gene expression vs. undifferentiated hESCs: 19 fold
[3]; hESCs treated with activin A vs retinoic acid (FIG. 7A)
  difference in the level of SOX17 mRNA expression: 10 fold
